± gives the uncertainty stated by the source.

The nature of the data set: self-splicing fitness, log relative to wild type (ln ratio); higher = more splicing; Tetrahymena group I intron in knt gene, E. coli kanamycin selection, DiMSum; sequences stand for … in CUCUCU…GGAGGGAAAAGUUAUCAGGCAUGCACCUGGUAGCUAGUCUUUAAACCAAUAGAUUGCAUCGGUUUAAAAGGCAAGACCGUCAAAUUGCGGGAAAGGGGUCAACAGCCGUUCAGUACCAAGUCUCAGGGGAAACUUUGAGAUGGCCUUGCAAAGGGUAUGGUAAUAAGCUGACGGACAUGGUCCUAACCACGCAGCCAAGUCCUAAGUCAACAGAUCUUCUGUUGAUAUGGAUGCAGUUCACAGACUAAAUGUCGGUCGGGGAAGAUGUAUUCUUCUCAUAAGAUAUAGUCGGACCUCUCCUUAAUGGGAGCUAGCGGAUGAAGUGAUGCAACACUGGAGCCGCUGGGAACUAAUUUGUAUGCGAAAGUAUAUUGAUUAGUUUUGGAGUACUCGUGGUCG
The procedure, abridged: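 Library with all eight P1ex-region intron nucleotides randomised, intron inside the knt kanamycin-resistance gene on pET-22b(+), in E. coli BL21(DE3). Cells grew overnight at 37°C or 30°C on LB agar with or without 25 μg/mL kanamycin (plus 100 μg/mL carbenicillin, 50 μM IPTG, 0.2% rhamnose), in six replicate transformations. Pooled colonies were amplicon-sequenced on Illumina HiSeq 2500. DiMSum fitness is the error-weighted combination of wild-type-normalised replicate fold changes, kanamycin versus none.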

In the case of CAGCAGCAAUAUUACGGGAU, the “self-splicing fitness (ln)” value runs as follows: (30 °C) -4.61 ± 0.22; (37 °C) -2.35 ± 0.12.

Consider GUUUAGCAAUAUUACGUCAC, for which the “self-splicing fitness (ln)” value runs as follows: (30 °C) -3.24 ± 0.24; (37 °C) -0.353 ± 0.17.

Take CUAAAGCAAUAUUACGAUGA: the “self-splicing fitness (ln)” value reads like this: (30 °C) -2.57 ± 0.11; (37 °C) -0.323 ± 0.1.

Consider UUAGAGCAAUAUUACGGCGU, for which the “self-splicing fitness (ln)” value by setting is: (30 °C) -1.73 ± 0.14; (37 °C) -1.12 ± 0.22.

Regarding GUCAAGCAAUAUUACGUUCA, the “self-splicing fitness (ln)” value is, setting by setting: (30 °C) -1.13 ± 0.1; (37 °C) -0.987 ± 0.16.

Regarding AGAAAGCAAUAUUACGAAUC, the “self-splicing fitness (ln)” value by setting is: (30 °C) -3 ± 0.26; (37 °C) -2.39 ± 0.24.

In the case of CUAAAGCAAUAUUACGCGGG, the “self-splicing fitness (ln)” value is, setting by setting: (30 °C) -2.27 ± 0.13; (37 °C) -2.03 ± 0.15.

As for GGGCAGCAAUAUUACGCGUG, the “self-splicing fitness (ln)” value (30 °C) is -0.165 ± 0.18 and the “self-splicing fitness (ln)” value (37 °C) is -1.87 ± 0.22.

Consider UUAUAGCAAUAUUACGCUCG, for which the “self-splicing fitness (ln)” value amounted to 0.392 ± 0.25 (30 °C) and 0.206 ± 0.22 (37 °C).

In the case of ACCCAGCAAUAUUACGUUAA, the “self-splicing fitness (ln)” value by setting is: (30 °C) -1.6 ± 0.078; (37 °C) -0.769 ± 0.071.

For UACAAGCAAUAUUACGCGGA, the “self-splicing fitness (ln)” value by setting is: (30 °C) -1.85 ± 0.092; (37 °C) -1.21 ± 0.098.

For the sequence GCGAAGCAAUAUUACGCCUA, the “self-splicing fitness (ln)” value was -3.1 ± 0.45 (30 °C) and -2.39 ± 0.34 (37 °C).

For AUCAAGCAAUAUUACGGUGC, the “self-splicing fitness (ln)” value reads like this: (30 °C) -3.24 ± 0.17; (37 °C) -3.12 ± 0.24.

In the case of AGUUAGCAAUAUUACGUAAG, the “self-splicing fitness (ln)” value runs as follows: (30 °C) -2.42 ± 0.21; (37 °C) -0.816 ± 0.27.

On to GGUCAGCAAUAUUACGGAAU, for which the “self-splicing fitness (ln)” value is, setting by setting: (30 °C) -0.593 ± 0.054; (37 °C) -0.0986 ± 0.069.

Take GCCAAGCAAUAUUACGGAUU: the “self-splicing fitness (ln)” value by setting is: (30 °C) -1.2 ± 0.056; (37 °C) -0.294 ± 0.08.

Take CACAAGCAAUAUUACGAUGU: the “self-splicing fitness (ln)” value was -3.96 ± 0.16 (30 °C) and -1.99 ± 0.1 (37 °C).

For CACAAGCAAUAUUACGGCUC, the “self-splicing fitness (ln)” value is, setting by setting: (30 °C) -2.56 ± 0.18; (37 °C) -1.75 ± 0.16.

In the case of UAGAAGCAAUAUUACGAUGU, the “self-splicing fitness (ln)” value was -3.01 ± 0.18 (30 °C) and -1.69 ± 0.19 (37 °C).

Take CCGGAGCAAUAUUACGGGAG: the “self-splicing fitness (ln)” value (30 °C) is -3.98 ± 0.27 and the “self-splicing fitness (ln)” value (37 °C) was -2.13 ± 0.26.

For GUACAGCAAUAUUACGGAGC, the “self-splicing fitness (ln)” value was -3.06 ± 0.14 (30 °C) and -2.17 ± 0.15 (37 °C).

With ACAUAGCAAUAUUACGGGAC, the “self-splicing fitness (ln)” value reads like this: (30 °C) -3.23 ± 0.14; (37 °C) -1.37 ± 0.12.

On to UAGGAGCAAUAUUACGCCGG, for which the “self-splicing fitness (ln)” value was -2.07 ± 0.22 (30 °C) and -1.57 ± 0.3 (37 °C).

Consider GGGGAGCAAUAUUACGGUCG, for which the “self-splicing fitness (ln)” value is, setting by setting: (30 °C) -2.08 ± 0.28; (37 °C) -0.686 ± 0.35.

Turning to CGGAAGCAAUAUUACGAGAA, the “self-splicing fitness (ln)” value is, setting by setting: (30 °C) -2.88 ± 0.48; (37 °C) -2.03 ± 0.24.

With GUAGAGCAAUAUUACGCAUU, the “self-splicing fitness (ln)” value was -2.45 ± 0.18 (30 °C) and -0.619 ± 0.25 (37 °C).

Take UUUUAGCAAUAUUACGAGAU: where the note is “37 °C”, the “self-splicing fitness (ln)” value is -1.25 ± 0.4.

For the sequence CUAGAGCAAUAUUACGCGCG, the “self-splicing fitness (ln)” value was -0.479 ± 0.11 (30 °C) and 0.603 ± 0.16 (37 °C).

For the sequence UAUCAGCAAUAUUACGAUGU, the “self-splicing fitness (ln)” value (30 °C) was -0.816 ± 0.072 and the “self-splicing fitness (ln)” value (37 °C) was -0.0178 ± 0.11.

For AUGCAGCAAUAUUACGGGAA, the “self-splicing fitness (ln)” value by setting is: (30 °C) -2.83 ± 0.16; (37 °C) -1.92 ± 0.14.

As for AUCAAGCAAUAUUACGCGUA, the “self-splicing fitness (ln)” value (30 °C) was -1.02 ± 0.086 and the “self-splicing fitness (ln)” value (37 °C) was -0.375 ± 0.08.

As to GCCCAGCAAUAUUACGUAAC, the “self-splicing fitness (ln)” value is -0.899 ± 0.074 (30 °C) and -0.153 ± 0.1 (37 °C).

UCACAGCAAUAUUACGUCUG: the “self-splicing fitness (ln)” value is -3.02 ± 0.13 (30 °C) and -0.735 ± 0.11 (37 °C).

On to UGAUAGCAAUAUUACGAUUU, for which the “self-splicing fitness (ln)” value is, setting by setting: (30 °C) -1.76 ± 0.1; (37 °C) -1.13 ± 0.12.

Consider AGACAGCAAUAUUACGGGUC, for which the “self-splicing fitness (ln)” value is, setting by setting: (30 °C) -3.04 ± 0.18; (37 °C) -2.92 ± 0.31.

With UCGAAGCAAUAUUACGCCAU, the “self-splicing fitness (ln)” value (30 °C) was -3.42 ± 0.32 and the “self-splicing fitness (ln)” value (37 °C) is -2.52 ± 0.48.

Regarding ACAAAGCAAUAUUACGACGG, the “self-splicing fitness (ln)” value runs as follows: (30 °C) -1.06 ± 0.07; (37 °C) -0.665 ± 0.093.

The record behind these values is the supplement of paper PMC7877785.
